US20220380455A1 (Alector, published 2022)
Values joined by “and” are separate entries in the source; they are usually repeats but may differ in a detail not shown here. Equal entries are not always repeated.

T1: cynomolgus (cyno) MS4A6A (cynomolgus, UniProt Q9H2W1 1-246 (human entry))
T1 construct: Full-length protein expressed in transfected HEK293, U937 or K562 cells (flow cytometry)
T1 chain: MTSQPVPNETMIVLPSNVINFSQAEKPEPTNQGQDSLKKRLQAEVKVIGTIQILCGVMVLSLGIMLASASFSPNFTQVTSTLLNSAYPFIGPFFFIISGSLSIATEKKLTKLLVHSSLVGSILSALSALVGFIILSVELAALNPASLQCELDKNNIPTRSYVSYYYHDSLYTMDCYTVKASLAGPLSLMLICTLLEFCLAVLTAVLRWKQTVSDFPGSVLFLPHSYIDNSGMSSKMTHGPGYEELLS

T2: MS4A6A ECL1 peptide (human)
T2 construct: the description elsewhere gives ECL1 as 68-84; Human and cyno ECL1 are said to be identical
T2 peptide: SASFSPNFTQVTSTLLNS

T3: BSA-MS4A6A-ECL2 peptide (human, BSA-conjugated)
T3 construct: Synthetic peptide derived from ECL2, conjugated to BSA, coated on the ELISA plate; also called MS4A6A-ECL2 BSA conjugated peptide; BSA-MS4A6A-ELC2 peptide
T3 peptide: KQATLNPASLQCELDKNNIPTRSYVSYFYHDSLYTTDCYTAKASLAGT

T4: MS4A6A ECL2 peptide (human)
T4 construct: also called MS4A6A ECL-2 peptides
T4 peptide: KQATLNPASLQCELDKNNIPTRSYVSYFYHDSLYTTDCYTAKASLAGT


Columns and labels:
cynomolgus (cyno) MS4A6A [1] = molecular target: T1, cynomolgus (cyno) MS4A6A; test: flow cytometry, hybridoma supernatant, HEK293 transfected with cyno MS4A6A over parental HEK293; Screen 1
Method: (§1) Positive clones were expanded and then rescreened for specificity against HEK293 cells overexpressing cyno MS4A6A and parental HEK293 cells. Briefly, previously prepared, cryopreserved transiently-transfected cells were labeled with LIVE/DEAD Fixable Aqua Dead Cell Stain Kit (ThermoFisher Scientific L34957) on ice for 30 minutes. After a wash with PBS, 2×10⁵ cells were aliquoted per well in 96-well round bottom plates and incubated with 50 μl of culture supernatant on ice for 30 mins. […] Following this secondary incubation, the cells were again washed twice with ice-cold FACS buffer and resuspended in a final volume of 200 μl of FACS buffer. Analysis was performed on a FACS Canto system (BD Biosciences), with sort gates drawn to exclude dead (Aqua-positive) cells. […] The screen was repeated twice, and the numbers reported here represent the ratio of mean fluorescence level in transfected cells over parental cells.

cynomolgus (cyno) MS4A6A [2] = molecular target: T1, cynomolgus (cyno) MS4A6A; test: flow cytometry, hybridoma supernatant, HEK293 transfected with cyno MS4A6A over parental HEK293; Screen 2
Method: as §1

MS4A6A ECL1 peptide [3] = molecular target: T2, MS4A6A ECL1 peptide; test: peptide ELISA, hybridoma supernatant
Method: (§2) Anti-MS4A6A hybridoma supernatants were tested for binding to MS4A6A peptides derived from ECL1 (amino acid residues 68-85 of human MS4A6A of SEQ ID NO:1) and ECL2 (amino acid residues 138-185 of human MS4A6A of SEQ ID NO:1) sequences, using an enzyme-linked immunosorbent assay (ELISA). Briefly, 96-well polystyrene plates were coated with 1-10 μg/mL of synthetic free or BSA-conjugated peptides in coating buffer (0.05M carbonate buffer, pH9.6, Millipore Sigma C3041) overnight at 4° C. Coated plates were then blocked with ELISA diluent (PBS+0.5% BSA+0.05% Tween20) for 1-hour, washed 3×300 μL in PBST (PBS+0.05% Tween20, Thermo 28352), and then the antibodies were added at various dilutions (100-1000×) in ELISA diluent. After 30 mins incubation (room temperature, with shaking), the plates were washed 3×300 μl in PBST. A secondary anti-mouse HRP antibody (Jackson Immunoresearch CAT #115-035-003) was added at a 1:1000 dilution in ELISA diluent (50 μL/well) and incubated for 30 minutes at room temperature with shaking. After a final set of washes (3×300 μl in PBST), 50 μL of TMB substrate (BioFx TMBW-1000-01) was added and the reaction was then quenched after 5-10 mins with 50 μL of stop solution (BioFx BSTP-1000-01). The quenched reaction wells were detected for absorbance at […] with a BioTek Synergy Microplate Reader using GENS 2.04 software.

BSA-MS4A6A-ECL2 peptide = molecular target: T3, BSA-MS4A6A-ECL2 peptide; test: peptide ELISA, hybridoma supernatant
Method: as §2

MS4A6A ECL2 peptide [4] = molecular target: T4, MS4A6A ECL2 peptide; test: array SPR (Carterra MX-96), antibody captured, peptide injected; both duplicates N/A
Method: (§3) Binding kinetic characterization of the purified antibodies to MS4A6A ECL1 and ECL2 peptides was performed by Carterra (South San Francisco, Calif.) using a proprietary array Surface Plasmon Resonance (SPR) instrument (MX-96) as follows. Antibodies were printed onto a CMD5OOD chip (Xantec #SPMX CMD500D lot #SC CMD500D0117.a Exp. 31.12.18) using the Continuous Flow Microspotter (CFM). First, the chip was activated with 100 mM MES pH 5.5, 100 μL EDC (133 mM final), 100 μL of S-NHS (33.3 mM final), for 7 minutes. A lawn of anti-mouse IgG-Fc (Jackson ImmunoResearch CAT #115-005-071 lot#130410) was injected for 15 minutes to establish a surface density of 10000-12000 RU, after which the chip surface was deactivated with 1 M ethanolamine at pH 8.5 for 10 minutes. Anti-MS4A6A antibodies in question, in the form of hybridoma supernatants diluted 2:1 with HBS-EP+buffer (Teknova CAT #H8022), were then printed as duplicates with a 20 minute and a 5 minutes print from the same sample solution. Control antibodies were diluted to 20 μ/ml for printing.
(§4) To perform kinetic analysis, the peptides in question were prepared in HBS-EP+buffer with lmg/ml BSA at final assay concentrations of 2000 nM, 400 nM, 80 nM, 16 nmM, and 3.2 nM. These were then injected on the chip for five minutes, followed by a seven-minute dissociation period at 8 uL per second in a non-regenerative kinetic series. Duplicate measurements for each anti-MS4A6A antibody were taken to ensure reproducibility.
(§5) Kₐ (association rate constant; Kₒₙ), Kd (dissociation rate constant; Koff) and KD (equilibrium constant) to MS4A6A ECL-2 peptides were calculated for each of the 23 anti-MS4A6A antibodies tested, the results of which are shown below in Table 5 (clones that bound too weakly to determine these values are denoted as N/A in Table 5).

MS4A6A ECL2 peptide [5] = molecular target: T4, MS4A6A ECL2 peptide; test: array SPR (Carterra MX-96), antibody captured on anti-mouse IgG-Fc, ECL2 peptide injected
Method: as §3, §4, §5

MS4A6A ECL1 peptide [6] = molecular target: T2, MS4A6A ECL1 peptide; test: array SPR (Carterra MX-96), antibody captured, peptide injected
Method: as §3, §4, §5

ratio of APC MFI on MS4A6A+/HEK parental cells (cynomolgus (cyno) MS4A6A [1]) | ratio of APC MFI on MS4A6A+/HEK parental cells (cynomolgus (cyno) MS4A6A [2]) | binding result (MS4A6A ECL1 peptide [3]) | binding result (BSA-MS4A6A-ECL2 peptide) | binding result (MS4A6A ECL2 peptide [4]) | Kd (MS4A6A ECL2 peptide [5]) | koff (MS4A6A ECL2 peptide [5]) | kon (MS4A6A ECL2 peptide [5]) | binding result (MS4A6A ECL1 peptide [6]) | Binder
18 ratio | 95.2 ratio | no binding |  |  | 190 nM | 0.0013 s⁻¹ | 6600 M⁻¹ s⁻¹ |  | 6A-10 (antibody, V domains shown, Mouse hybridoma antibody, tested as hybridoma supernatant (mouse IgG, detected or captured via anti-mouse IgG Fc); also called anti-MS4A6A antibody 6A-10) VH: QIQLVQSGPELKKPGETVKISCKASGYTFTNYGMNWVKQAPGKGLKWMGWINTYTGEPTYADDFKGRFAFSLETSASTAYLQINNLKNEDMATYFCARAYGNSAWFAYWGQGTLVTVSA VL: QIVLSQSPAILSASPGEKVTMTCRASSSVSYMHWYQQKPGSSPKPWIYATSNLASGVPARFSGSGSGTSYSLTISRVEAEDAATYYCQQWSSNPWTFGGGTKLEIK
3.6 ratio | 8.3 ratio | no binding | no binding | no binding (tested: 2000 nM) |  |  |  |  | 6A-7 (antibody, V domains shown, Mouse hybridoma antibody, tested as hybridoma supernatant (mouse IgG, detected or captured via anti-mouse IgG Fc); also called anti-MS4A6A antibody 6A-7) VH: QVQLQQSGAELARPGASVKMSCKASGYTFTSYAMHWVKQRPGQGLEWIGYINPSSGYTYYNQKFKDKATLTADKSSSTAYMQLSSLTSEDSAVYYCARSYYGNYEGYLDVWGAGTTVTVSS VL: NIVLTQSPASLAVSLGQRATISCRASESVESYGKSFIHWYQQKPGQPPKLLIFLASNLESGVPARFSGSGSRTDFTLTIDPVEADDAATYYCQQNNVGPYTFGGGTKLEIK
26.7 ratio | 69.5 ratio | no binding |  |  | 170 nM | 0.001 s⁻¹ | 6300 M⁻¹ s⁻¹ |  | 6A-8 (antibody, V domains shown, Mouse hybridoma antibody, tested as hybridoma supernatant (mouse IgG, detected or captured via anti-mouse IgG Fc); also called anti-MS4A6A antibody 6A-8) VH: QVQLQQSGAELARPGTSVKLSCKASGYTFTDYYINWVKQRNGQGLEWIGEIYPRSGNAYYNEKFRGKATLTTDKSSSTAYMQLSGLTSEDSAVYFCARGDGNWYFDVWGAGTTVIVSS VL: DIVMTQSPSSLSVSAGEKVTMSCKSSQSLLNSGDQENYLVWYQQKPGQPPKLLIYGASTRESGVPDRFTGSGSGTDFTLTISSVLAEDLAVYYCQSDHSYPLTFGAGTKLELK

Second part, the binder before the results:

Binder | ratio of APC MFI on MS4A6A+/HEK parental cells (cynomolgus (cyno) MS4A6A [1]) | ratio of APC MFI on MS4A6A+/HEK parental cells (cynomolgus (cyno) MS4A6A [2]) | binding result (MS4A6A ECL1 peptide [3]) | binding result (BSA-MS4A6A-ECL2 peptide) | binding result (MS4A6A ECL2 peptide [4]) | Kd (MS4A6A ECL2 peptide [5]) | koff (MS4A6A ECL2 peptide [5]) | kon (MS4A6A ECL2 peptide [5]) | binding result (MS4A6A ECL1 peptide [6])
6A-17 (antibody, V domains shown, Mouse hybridoma antibody, tested as hybridoma supernatant (mouse IgG, detected or captured via anti-mouse IgG Fc); also called anti-MS4A6A antibody 6A-17) VH: QVQLKESGPGLVAPSQSLSITCTISGFSLTSYGVHWVRQPPGKGLEWLVVIWSDGSTTYNSALKSRLSISKDNSKSQVFLKMNGLQTDDTAMYYCARHRGNYPYYTMDYWGQGTSVTVSS VL: DIQMTQTTSSLSASLGDRVTISCRASQDISNYLNWYQQKPDGTVKLLIYYTSVLHSGVPSRFSGSGSGTDYSLTISNLEQEDIATYFCQQGNTLPWTFGGGTKLEIK | 19.3 ratio | 178 ratio | no binding | no binding | no binding (tested: 2000 nM) |  |  |  | 
6A-4 (antibody, V domains shown, Mouse hybridoma antibody, tested as hybridoma supernatant (mouse IgG, detected or captured via anti-mouse IgG Fc); also called anti-MS4A6A antibody 6A-4) VH: EVQLQQSGPELVKPGASVKISCKASGYSFTGYYMHWVKQSPEDSLEWIGAINPSTGGSTYSQKFKDKATLTVDKSSSTAYMQLKSLTSEESAVYYCTRFDGYGYWGQGTLVTVSA VL: DIVMTQAAFSNPVTLGTSASISCRSSKSLLHSNGITYLYWYLQKPGQSLQLLIYQMSNLASGVPDRFSGSGSGTDFTLRISRVEAEDVGVYYCAQNLELPWTFGGGTKLEIK | 5.4 ratio | 16.2 ratio | no binding | no binding | no binding (tested: 2000 nM) |  |  |  | 
6A-3 (antibody, V domains shown, Mouse hybridoma antibody, tested as hybridoma supernatant (mouse IgG, detected or captured via anti-mouse IgG Fc); also called anti-MS4A6A antibody 6A-3) VH: EVQLQQSGPELVKPGASVKMSCKASGYTFTDYFMKWVKQSHGKSLEWIGDINPKNGDTFYNQKFKGKATLTVDKSSSTAYMQLNSLTSEDSAVYYCARPGYFDVWGAGTTVTVSS VL: not shown | 24.1 ratio | 63.7 ratio |  |  |  | 120 nM and 94 nM | 0.0006 s⁻¹ and 0.00065 s⁻¹ | 4800 M⁻¹ s⁻¹ and 6800 M⁻¹ s⁻¹ | no binding (tested: 2000 nM)
6A-20 (antibody, V domains shown, Mouse hybridoma antibody (SJL mouse), tested as hybridoma supernatant (mouse IgG, detected or captured via anti-mouse IgG Fc); also called anti-MS4A6A antibody 6A-20) VH: EVQLQQSGPELVKPGASVKMSCKASGYTFTDYFMKWVKQSHGKSLEWIGDINPKNGDTFYNQKFKGKATLTVDKSSSTAYMQLNSLTSEDSAVYYCARPGYFDVWGAGTTVTVSS VL: DIVMTQAAPSVPVTPGESVSISCRSSKSLLHSDGNTYLYWFLQRPGQSPQLLIYRMSNLAPGVPDRFSGSGSGTAFTLRISRVEAEDVGVYYCMQHLEFPFIFGAGTKLELK |  |  | no binding | no binding | no binding (tested: 2000 nM) |  |  |  | 
6A-6 (antibody, V domains shown, Mouse hybridoma antibody, tested as hybridoma supernatant (mouse IgG, detected or captured via anti-mouse IgG Fc); also called anti-MS4A6A antibody 6A-6) VH: QIQLVQSGPELKKPGESVKISCKASGYTFANYGMNWVKLAPGKGLKWMGYINIYSGKSRYADDFKGRFAFSLETSASTAYLQINNLKNEDMATYFCARDNDYFDYWGQGTTLTVSS VL: DIVLTQSPATLSVTPGDTVSLSCRASQSISDNLHWYQQKSHESPGLLIKYASQSISGIPSRFSGRGSGTDFTLSINSVDSEDFGVYFCQQSNSWPYTFGGGTKLEIK | 13.5 ratio | 62.1 ratio | no binding | binds |  |  |  |  | 
6A-2 (antibody, V domains shown, Mouse hybridoma antibody, tested as hybridoma supernatant (mouse IgG, detected or captured via anti-mouse IgG Fc); also called anti-MS4A6A antibody 6A-2) VH: DVQLQESGPGLVKPSQSLSLTCSVTGYSITSGYYWNWIRQFPGNKLEWLGYITYDGDTDYNPSLKNRVSITRDTSKNQFFLNLISVTPEDTATYYCAREDSFGYWGQGTLVTVSA VL: not shown | 25.7 ratio | 75.5 ratio |  |  |  | 200 nM and 120 nM | 0.001 s⁻¹ and 0.00098 s⁻¹ | 5300 M⁻¹ s⁻¹ and 8300 M⁻¹ s⁻¹ | no binding (tested: 2000 nM)
